The source of these data is article PMC10732425.

Series [1] deals with RhlR:mBTL;PqsE (Pseudomonas aeruginosa (PA14?);Pseudomonas aeruginosa (PA14?)) (UniProt P54292+A0A0H2Z6F6). As to the kind of experiment: EMSA. The settings on record: […] (17 of 20 uL): 200 mM KCl, 50 mM Tris-HCl pH 7.5, 250 ug/mL BSA, 50 mM NaCl, 5 nM EDTA, 5 uM MgCl2, 5 uM DTT ([…], RT 15 min. A general note: In EMSA bound probe runs differently from free probe, usually more slowly.

Series [2] deals with T1, RhlR:mBTL (Pseudomonas aeruginosa (PA14?)) (UniProt P54292).
T1 sequence: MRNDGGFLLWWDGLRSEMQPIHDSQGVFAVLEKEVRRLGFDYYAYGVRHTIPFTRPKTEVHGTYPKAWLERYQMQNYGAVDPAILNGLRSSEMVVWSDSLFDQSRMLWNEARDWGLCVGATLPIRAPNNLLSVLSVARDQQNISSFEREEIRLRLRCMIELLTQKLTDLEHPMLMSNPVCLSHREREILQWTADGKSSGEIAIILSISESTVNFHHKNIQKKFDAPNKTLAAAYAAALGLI
As to the kind of experiment: EMSA. The conditions noted are these: […] (17 of 20 uL): 200 mM KCl, 50 mM Tris-HCl pH 7.5, 250 ug/mL BSA, 50 mM NaCl, 5 nM EDTA, 5 uM MgCl2, 5 uM DTT ([…], RT 15 min.

Regarding “TATGGCGTGTCGGGAGAGATCCGCAGTCCTTGGCGGCAGGCGATGCGCAGGCAGGAAGGACGCATCGTTCAGCCAATCTACGCCGTCGACCGGGCGCGACCACTGCTAGAGTTCGCAGGAGGGCTACAGGGGTGTCCTGGCACTGGCGATGCATGGCCCGGTGCCGGTCTATGGCAGCCGCCTGCCGGCCCACTCGTTCGATTGTTACGCTGTCTGTAAT (double strand) [lecB promoter fragment]”, the binding entry in series [1] is given as “binds”.

“TGGATGGTCATGTCTGCCCGCGAGAGGGGCTGGATATCGTGTTGACGTTCAAGAAGGTGCATTGCCCTTTCATCCGTGAGAGAGAGTCGGGAGCCGGCGACACTAGGAGTCGGGCCGGGCGCGGACATTGATCCATGACAGGTGGGTATCTTCCCCTGCCAATTCTGGTAGGTGGGGTGCAGGTGTTCGCGCGGAAAAGTCGAACCCGCGCCTACCCCAG (double strand) [hcnA promoter fragment]”: the binding result in series [1] is given as “binds”.

“GGGGCTTGTGTGGGTCTTGCAGATCGGCCTGCGCAAACGATTGGCGTCCGTGTTCACGCGTAGCCGATGAACACTTTTTAGCCAATTCGAAAGCTAACGGTAACTGCCAGATTTCACAGGACGGGCGGTCGCCTGCGCATAAGCCCCTGCCCGCCCGCGATAAGGCGTGCCAGAGCGGCCGGCGGGGAACAGCGAGGGGTTGGCGGAAAAGGCATGAAAA (double strand) [rhlA promoter fragment]”: the binding entry in series [2] and in series [1] was “binds” in each case.
